Measured values: PMC5457487, “Structural Basis for Mitotic Centrosome Assembly in Flies” (Cell, 2017)
Positions count from the first letter of the chain named. In names and notes the source's numbering stands.

B1: Cnn LZ WT (GPM-D490-K544) (domain or fragment, Drosophila melanogaster)
chain: GPMDQQNSAVIGQLRLELQQARTEVETADKWRLECVDVCSVLTNRLEELAGFLNSLLK
notes: Centrosomin (Cnn), Drosophila, LZ domain, aa490-544; Homo-tetramer alone in solution; a parallel homo-dimer in the 2:2 complex with CM2; also called LZ domain; leucine zipper; source: E. coli B834 (DE3), purified (Ni-NTA, SEC; tag cleaved with GST-3C protease, reverse Ni-NTA, SEC); not shown: His6, N-terminal, cleaved; MBP, N-terminal, cleaved
B2: LZ-L535E (domain or fragment, Drosophila melanogaster)
chain: B1 chain with L49E
notes: N-terminal residues as printed for the WT LZ construct of the same vector; Centrosomin (Cnn), Drosophila, LZ domain, aa490-544, L535E; also called LZ (aa490-544 L535E); Cnn_(490-544) L535E; source: E. coli B834 (DE3), purified; not shown: His6, N-terminal, cleaved; MBP, N-terminal, cleaved
B3: MBP-PReM (domain or fragment, Drosophila melanogaster, UniProt P54623-2 403-608, looked up)
chain: QLQTEVKKKTANLQNLVNKELWEKNREVERLTKLLANQQKTLPQISEESAGEADLQQSFTEAEYMRALERNKLLQRKVDVLFQRLADDQQNSAVIGQLRLELQQARTEVETADKWRLECVDVCSVLTNRLEELAGFLNSLLKHKDVLGVLAADRRNAMRKAVDRSLDLSKSLNMTLNITATSLADQSLAQLCNLSEILYTEGDASH
notes: Centrosomin (Cnn), Drosophila, phospho-regulated multimerization (PReM) domain, aa403-608; also called MBP-PReM fusion; Cnn-PReM (aa403-608); source: E. coli B834 (DE3), purified (Ni-NTA, SEC); not shown: MBP, N-terminal, kept
B4: Cnn CM2 WT (GGS-H1082-L1148) (domain or fragment, Drosophila melanogaster)
chain: GGSHDCAKVDLENAELRRKLIRTKRAFEDTYEKLRMANKAKAQVEKDIKNQILKTHNVLRNVRSNMENEL
notes: GGS motif left at the N terminus after TEV cleavage; Centrosomin (Cnn), Drosophila, CM2 domain, aa1082-1148; The dimer holds a Zn2+ ion coordinated by H1082 and C1084; also called Cnn-motif 2 domain; Cnn_(1082-1148); source: E. coli C41 (DE3), purified (Ni-NTA, TEV cleavage, SEC); not shown: His-tagged lipoyl domain (Bacillus stearothermophilus dihydrolipoamide acetyltransferase), N-terminal, …
B5: Cnn LZ (GPM-D490-L552) (domain or fragment, Drosophila melanogaster)
chain: GPMDQQNSAVIGQLRLELQQARTEVETADKWRLECVDVCSVLTNRLEELAGFLNSLLKHKDVLGVL
notes: source: E. coli, purified as complex with CM2; not shown: His6, N-terminal, cleaved; MBP, N-terminal, cleaved
B6: CM2-I1126E (domain or fragment, Drosophila melanogaster)
chain: B4 chain with I48E
notes: GGS motif left after TEV cleavage, as told for the WT CM2 construct of the same vector; Centrosomin (Cnn), Drosophila, CM2 domain, aa1082-1148, I1126E; also called CM2 (aa1082-1148 I1126E); source: E. coli C41 (DE3), purified; not shown: His-tagged lipoyl domain (Bacillus stearothermophilus dihydrolipoamide acetyltransferase), N-terminal, cleaved
B7: CM2-T1133E (domain or fragment, Drosophila melanogaster)
chain: B4 chain with T55E
notes: GGS motif left after TEV cleavage, as told for the WT CM2 construct of the same vector; Centrosomin (Cnn), Drosophila, CM2 domain, aa1082-1148, T1133E; also called CM2 (aa1082-1148 T1133E); source: E. coli C41 (DE3), purified; not shown: His-tagged lipoyl domain (Bacillus stearothermophilus dihydrolipoamide acetyltransferase), N-terminal, cleaved
B8: CM2-L1137E (domain or fragment, Drosophila melanogaster)
chain: B4 chain with L59E
notes: GGS motif left after TEV cleavage, as told for the WT CM2 construct of the same vector; Centrosomin (Cnn), Drosophila, CM2 domain, aa1082-1148, L1137E; also called CM2 (aa1082-1148 L1137E); source: E. coli C41 (DE3), purified; not shown: His-tagged lipoyl domain (Bacillus stearothermophilus dihydrolipoamide acetyltransferase), N-terminal, cleaved

Columns and labels:
[1] = target: B4; test: SEC-MALS; S75 10/300 column; 50 mM Tris-HCl pH7.5, 150 mM NaCl, 10 μM ZnCl2, 5 mM β-mercaptoethanol; proteins alone or mixed; details: both partners purified
[2] = target: the molecule itself; test: as above
[3] = target: the molecule itself; test: SEC-MALS; Superose 6 column; MBP-PReM apo or with addition of CM2 WT or point mutants; 50 mM Tris-HCl pH7.5, 150 mM NaCl, 10 μM ZnCl2, 5 mM β-mercaptoethanol
[4] = target: B4; test: crystal structure; LZ:CM2 complexes of various LZ lengths and LZ-L535E:CM2; sitting drops, 21°C; details: both partners purified

Binder	stoichiometry N [2]	other results
B1	4	stoichiometry N [1]: 1 LZ per CM2 (printed as 2:2)
B2		stoichiometry N [1]: 1 LZ per CM2 (printed as 2:2)
B3		stoichiometry N [3]: 2
B4	2	
B5		binding result [4]: binds
B6	2	
B7	2	
B8	2	
